Experiment: soluble on expression in E. coli; label from the status in PepcDB or PDB records

Sequence | soluble on expression in E. coli
MSLKSKVLVIDDEPDIRELLTLTLSRMGLICDAVSDFKQGIEHIKQNYYSLVLTDMRLPDGDGIEIVKFIQKYKPQLPVAVITAYGNVEGAVNTLKAGAFDYVSKPVDLKMLRELVKTALSMQNPSTESPDEGLLVGESLIMQQLRESIHKLARSQAPVFIQGDSGVGKELVAQLIHANGPRKDKPFIPVNCGAIPGELMESEFFGHKKGSFTGAISDKTGLFVAAHGGTLFLDEIAELPLAMQVKLLRAIQEKAIKPIGELYEIPVDVRILSASHKNLIEEINAGRFRQDLYYRINVIELRVPTLMERLSDIPCLTEAILKKLSKNQNRNLVKINPSCFEILSRYHFPGNVRELENILERAMAMCEGEVIEPSEGHHHHHH | soluble
MSLVSEAHIYLQKTNAIQQSSADLISILAGSGGNRDLLLLRDHLLSIDMMKLLDKDLHLREHFSDRRRDLLSRLWSKDAPDERFQRYYLSRIEVTYDDYAQVLSITAQAYSPEMARAIAQMMVTEGEKYMNALDHKTAHDQVSYIEQQVSALGVRMVAARKAVLAYQDAHGLVSPGNAVESISAIASRLDAELSDLMTKRAALAGYLTPAAPDIVQLDSQIAAVKSQLQAERQRVAAKRGGGLNAVAEEQGRLEAEAALADDMYKTALVALETARVESTRKIKSVAVLQSANLPVYPLEPRRIYNILEGHHHHHH | not soluble
MGSDKIHHHHHHMDQEQLDALANAALEELARRNYGDFFYLSHGKQWDLLRHQKYITDRLQKIIDGEQKYYIIEIPPQHGKSTVITETFPAYYLMRHPDSLVMVVSYSKELFQKFGRKNREKFRLFSDQLFGLQISSETSSVSEWGVEGHLGSLYSTSILGGATGRGARLLIIDDPIKNRAEAESKTIRDKIYNEWQDTFYSRLTADASVIVIMTRWHEDDLAGRLLKEQTLPWEEIKIPAIAEDDDLLGRKPGEALAPEIGKDEEWAAKTKAVTGSRGWAALYQQRPTPAGGNIFKRSWIKFYVPTLSKKIELSLGDDVVILPRLFDRQAQSWDCTFKDTETSDYVSGQVWGKKRADFYLLDRHHERMGIVETMKAIDAMAAKWPKARGIYIEDKANGTAVIEMLKNELSGIIAVNPEGGKEVRANAVAPIWEAGNVYLPHPLVCPWVDDFINELVAFPNAEHDDDVDSMTQILNKMIGKVSLRERYLDN | not soluble
MASIINKQIISPTGRNMEIINYEILKKYPLCDRCFGRLYAKLLHTTNTERGRALKLYKALELEAKIKKAKEKGINYEEELELLKALAKSGVDEIRLEDIEIEKENCPWCRGIFNKQKMEKLLNKAIELLKEYDFDTFLIGTHIPEEIKDLEKEIETEFMESIKQEFGREFGKMLAVRLDKAPDKEYPDIVVHINPYTEEIYLQINPLFIKGRYRKLVRGIPQTRWPCRKCRGKGCELCNYTGKKYPISVEEIIAKPFLEATKGVDAKFHGAGREDIDVRMLGDGRPFVLEIKEPKIRKIDLNKIAEEINKDGRVEVLNLEFGVRKDKVIFKNTPHRKTYRALVECSDKITDEELKLLEKELENRTIYQKTPKRVLHRRADLERIRKVYKVKTSKVDDNHFEMIIYCDGGLYIKELISGDDGRTNPSVSSILNKNCICKELDVLKIHDNNLLEKG | soluble
MKLPLFPLPICLLPEGYTQLRIFEPRYKRLVAESLKSGDGFGLCMTSEEVNTLYPIGTLVHIIDFETLSDGMLGVSIEGKQRFILGDISVESDGLKRAQINLIDNWPAAPIHENEHYLSDMLQNILKEYPKHLQQYQAAQFDDIAWVCQRWLEILPIRSAEKYTCINALDHQLTLDLLRTVIKLEHHHHHH | soluble
MGSDKIHHHHHHMSEALTIAGVDIQPGTQHQLELPVASLYTDTQVSIPVHVIRAKKDGPKVFVSAAVHGDELNGIEIIRRLIQSKLKLLKGTLILVPMVNVYGVLNQSRYMPDRRDLNRCFPGSPKGSLAGRVAYTFLNSIVQHCDYGIDLHTGAIHRSNLPQIRANLDDEQTLALAQAFGVPVLLNANVRDGSLREAAVNKGTRVLLYEAGQALRFDELSIQTGERGILNVLSSLGLIRKRRLRKKIEPFIANRSDWTRASASGFVCEFAKLGAYVEKGQVLAEINSPLGELIQSVVSNRTGIVIGKQNIPLVLEGDAMFHVAYFGSAADEVAEHIEIMNDQIMPLTTQTI | not soluble
MADSKAKPAKAANKTPPKSPGDPARAAKRLSLESEGANEGATAAPELSALEEAFRRFAVHGDTRATGKEMHGKNWSKLCKDCHVIDGKNVTVTDVDIVFSKIKGKSCRTITFEQFQEALEELAKKRFKDKSSEEAVREVHRLIEGRAPVISGVTKAVSSPTVSRLTDTSKFTGSHKERFDQSGKGKGKAGRVDLVDESGYVPGYKHAGTYDQKVQGGK | soluble
MSTPVDLTEGLDGAKLAVTVLMIRDSPTGLEVYVQERVSSMPTFPNATVFPGGGVDPRDFELDGVESEHETFGGPSLMHWARSLGTNRNRARALLFAAARELFEETGTLLATHSDGTPIPDATQYHPQRLALESHRLSLSQVLARHDLTLRSEWLRPSTRWVSPETDEKRFDMFAFVAVQPPGQEPDGNTREAASTGWFSPSLILDGWRAGLIRLVIPTWAQLLILSRFDCVRDVLEFLRRADMTPIIGDPVDDPRFEEFYSFTPPERF | not soluble
MTNVLWLQGGACSGNTMSFLNGEEPTACDLIANFGIKVLWHPSLGVELGNNLQTLLWDCVLGKTPLDILVFEGSVVNAPNGTGEWNRFADRPMKDWLIDLSQAAKFIVAVGDCATWGGIPAMSPNPSDSKGLQFLKRKEGGFLGKDFVSKAGLPVINIPGCPTHPDWITQILVAIATGRTDDIVLDELHRPQTFFNTYTQTGCTRNIHFAYKATTAEFGQRKGCLFYDLGCRGPMTHSSCNRILWNRISSKTRAGMPCLGCTEPEFPFFDLKPGTVFKTQTVMGVPKEIPPGVNHRDYAVLTVVAKDAAPKWADEDFFTV | not soluble
MSLAANPWNWFGSSTKVSEQGVGELTASTPLQEQAIADALDGDYRLRSGMKTANGNVVRFFEVMKGDNVAMVINGDQGTISRIDVLDSDIPADTGVKIGTPFSDLYSKAFGNCQKADGDDNRAVECKAEGSQHISYQFSGEWRGPEGLMPSDDTLKNWKVSKIIWRREGHHHHHH | soluble
MGSEKMIEICIDMEEGEPLGATPNDKLVITKIQAGTISEGKLRIGDQVKKVNGQNCKDCNDFFRALRFAAPCAKITVNRDEKKAEELEARVHIPEDRAKIIQRREGYVYELATLVWVQNGPKLGLGIKHFQNRVLVSRVDPGSLAEKCLVLGDHLCDVDGIPVSDKDVARDLLVKNIQEKGKVTFVVERPDSIDAKQWAKQALATNLMQPPSVQMNEDVKGIASQYRQALPGLKPPAKSAMSTGPNARRVSIIEQTQTHEIGHDHEGKALRKVK | soluble
MSLKPVMIIQFSASEGPGHFGDFLAGEHIPFQVLRMDRSDPLPAEIRDCSGLAMMGGPMSANDDLPWMPTLLALIRDAVAQRVPVIGHCLGGQLLAKAMGGEVTDSPHAEIGWVRAWPQHVPQALEWLGTWDELELFEWHYQTFSIPPGAVHILRSEHCANQAYVLDDLHIGFQCHIEMQAHMVREWCSISPEELKGGAEADPAQPMVQSAVEILRDLDVRIATLNRWAEHVYARWIKGLQREGHHHHHH | soluble
MLSARTMKEVVYWSPKKVADWLLENAMPEYCEPLEHFTGQDLINLTQEDFKKPPLYRVSSDNGQRLLDMIETLKMEHHMEAHKN | soluble
MSEAAHSGAAPADLVELGRIASAYGVKGWVKVQPHSAQAEVLRTVSHWWLTRPAPQAARGVVASVPRAYQVLQARVHGGAVVAQLAGIDDRDQAEALRGCLVQAARSAFPAPADDEYYWVDLIGCALYSDADGESRLLGVVDEVFDNGAHAVLKVLRQQLQPGQPGPVPLVDPKGRPLEELVPFVRAHIRHVDLAARRIDSDWPLDYLEHHHHHH | soluble
MGSDKIHHHHHHMAEGSSSSSLTRLMSILDIFTETRPEWSSDDMMTELGYPRPTLYRYLKVLTDAGMLASNGHGIYTLGPKVVEMDHLLRLSDRLVAIGRPVVAQLTEQYACTAFLVRWYRNRLLCMHSETSLEAPLSSYPRGRVMPMNRGAIARTILAHLQSRKARKIIESFAPEGPEDARKAYIAEQAAALRSVRRNGYAIAFGEVTPGVVGVASPIFDEAAEPAGALCMTMRQEDCPHELRTLITQAVPAAANSITVTLRQSRHTGTDHTHLPLQEEVKDR | not soluble
MGSDKIHHHHHHMKNLIFKDSQFEFQTLRVLGSSASGAADIGEVVETAQRIKEGDFKSWCDEWSKTAKSLEESAEESYSKGHFISAKKAYLRAANYYRTAEFYLHENPNNPIIGELYEKSLRCFSYVMKLNKPAIEAVKIPYENTFLPAHYYKLQNSNGKAPVLIAMTGYDGTKEEFYGLAMTALEHGMNFLTFEGPGQGEAVRKQKLFFRYDYEKVVTPVIDYVISRKEVDQAKIILWGESLGGYLAPRAAAFEHRLAACVANSGVYDFFGGILRELGNNSREEFFSAARINPEEFDKNIYSIAKLNSKVRWGIYHGMYVFGVNSPHEYILKAEDFYLKDIAEKIKCPTLVIDSDNDGILGGQSKPLYDVLRCKKEYMFFTSENGAGYHCQVGAKLIGWERILSWIEDIIK | not soluble
MNTTEFDGISHAEGLCDKEFIGKAISYLYRYGQIYIGKKIEPYGIGSGQFPFLMRLYREDGINQESLSDYLKIDKGTTARAIQKLVDEGYVFRQRDEKDRRSYRVFLTEKGKKLEPDMKKIASEWGEILFSSFDDRQRREITNSLEIMFENGLKIM | not soluble
RHYPEVKKLVLLSTAVNAMEWPQIIENSKQVITEAKEVTLKNSPMFKRYQKKVTETPWTSTLQFKKMVALAKPVFEHIEIPTFIAQGSADPIVPAEKSVNFLMESIPGPKELFILEGSKHVICQDEQADKLFAAVLTFLQK | not soluble
MSLNQNPVEEGQKFPLTIRRMGINGEGIGYFKKAVVFVPGAITGEEVVVEAVKVRDRFTEAKLNKIRKKSPNRVTAPCPVYEACGGCQLQHVAYSAQLELKRDIVIQSIEKHTKIDPTKLKIRPTIGMEDPWRYRNKSQFQTRMVGSGQVETGLFGANSHQLVPIEDCIVQQPVTIKVTNFVRDLLEKYGVPIYDEKAGSGIVRTIVVRTGVKTGETQLVFITNSKKLPKKREMLAEIEAALPEVTSIMQNVNQAKSSLIFGDETFLLAGKESIEEKLMELEFDLSARAFFQLNPFQTERLYQEVEKALVLTGSETLVDAYCGVGTIGQAFAGKVKEVRGMDIIPESIEDAKRNAEKNGIENVYYEVGKAEDVLPKWVKEGFRPDAVIVDPPRSGCDQGLIKSLLDVEAKQLVYVSCNPSTLARDLALLAKKYRIRYMQPVDMFPQTAHVETVVLLQLKDKEGHHHHHH | soluble
MQRMGMVIGVKPEMIAEYKRLHAAVWPEVLALISESNIRNYTIFLREPENLLFGYWEYHGSDFSADMAKIAASPKNQEWWSFTIPCQQPLESRKEGEWWAMMEETFHLD | not soluble
MSRHPLKIVIAGAGIGGLAAAACLKAAGFEVELYERARELRAVGSALSLMPNALTALERVGVRPDLTRAQAFDSLRFLTRRGRPIRAIDFGGLARQLGQPSLAIHRASLQQALLEQARDCRIELGVSATGYLRHADGEGVTVLCSDGREVHADVLIGADGFNSAIRATMTGPERPTDWHYVIWRATPAFRHPKVTPGYVAHYWGRGQRFGLADIGEGNVYWWGTRNMPAEQAKDWRGGKAGIQRLYAGWADEVQAVIEATPEADISSLPAQDRPFLERWGDGPVTLLGDAAHPMLTSLGQGAAIAIEDAAVLAHCLATIDDPQAALRAYENRRRDRARAMVETSRALSRIEQLEHPLRTVARDLYFRFAPERTFARQNELALTFPGVELEHHHHHH | not soluble

Source: the DeepSol protein solubility set
